{"source": "paper PMC12753876", "about": "“The CRY1-HsF predicted interaction interface serves as a molecular platform for bioengineering or selecting modulating mutants” (Frontiers in Plant Science, 2025)", "binders": {"B1": {"name": "CRY1^(PHR WT) in pGADT7 (AD) (domain or fragment, Arabidopsis thaliana, UniProt Q43125 1-508, looked up)", "chain": "MSGSVSGCGSGGCSIVWFRRDLRVEDNPALAAAVRAGPVIALFVWAPEEEGHYHPGRVSRWWLKNSLAQLDSSLRSLGTCLITKRSTDSVASLLDVVKSTGASQIFFNHLYDPLSLVRDHRAKDVLTAQGIAVRSFNADLLYEPWEVTDELGRPFSMFAAFWERCLSMPYDPESPLLPPKKIISGDVSKCVADPLVFEDDSEKGSNALLARAWSPGWSNGDKALTTFINGPLLEYSKNRRKADSATTSFLSPHLHFGEVSVRKVFHLVRIKQVAWANEGNEAGEESVNLFLKSIGLREYSRYISFNHPYSHERPLLGHLKFFPWAVDENYFKAWRQGRTGYPLVDAGMRELWATGWLHDRIRVVVSSFFVKVLQLPWRWGMKYFWDTLLDADLESDALGWQYITGTLPDSREFDRIDNPQFEGYKFDPNGEYVRRWLPELSRLPTDWIHHPWNAPESVLQAAGIELGSNYPLPIVGLDEAKARLHEALSQMWQLEAASRAAIENGSEE", "notes": "cryptochrome 1 (AtCRY1), Arabidopsis thaliana, PHR domain, residues 1-508; also called CRY1 PHR domain; source: yeast two-hybrid fusion (yeast Y187)"}, "B2": {"name": "CRY1^(PHR K332A) in pGADT7 (AD) (domain or fragment, Arabidopsis thaliana, UniProt Q43125 1-508, looked up)", "chain": "MSGSVSGCGSGGCSIVWFRRDLRVEDNPALAAAVRAGPVIALFVWAPEEEGHYHPGRVSRWWLKNSLAQLDSSLRSLGTCLITKRSTDSVASLLDVVKSTGASQIFFNHLYDPLSLVRDHRAKDVLTAQGIAVRSFNADLLYEPWEVTDELGRPFSMFAAFWERCLSMPYDPESPLLPPKKIISGDVSKCVADPLVFEDDSEKGSNALLARAWSPGWSNGDKALTTFINGPLLEYSKNRRKADSATTSFLSPHLHFGEVSVRKVFHLVRIKQVAWANEGNEAGEESVNLFLKSIGLREYSRYISFNHPYSHERPLLGHLKFFPWAVDENYFAAWRQGRTGYPLVDAGMRELWATGWLHDRIRVVVSSFFVKVLQLPWRWGMKYFWDTLLDADLESDALGWQYITGTLPDSREFDRIDNPQFEGYKFDPNGEYVRRWLPELSRLPTDWIHHPWNAPESVLQAAGIELGSNYPLPIVGLDEAKARLHEALSQMWQLEAASRAAIENGSEE", "notes": "cryptochrome 1 (AtCRY1), Arabidopsis thaliana, PHR domain, residues 1-508; source: yeast two-hybrid fusion (yeast Y187)"}, "B3": {"name": "CRY1^(PHR R335A) in pGADT7 (AD) (domain or fragment, Arabidopsis thaliana, UniProt Q43125 1-508, looked up)", "chain": "MSGSVSGCGSGGCSIVWFRRDLRVEDNPALAAAVRAGPVIALFVWAPEEEGHYHPGRVSRWWLKNSLAQLDSSLRSLGTCLITKRSTDSVASLLDVVKSTGASQIFFNHLYDPLSLVRDHRAKDVLTAQGIAVRSFNADLLYEPWEVTDELGRPFSMFAAFWERCLSMPYDPESPLLPPKKIISGDVSKCVADPLVFEDDSEKGSNALLARAWSPGWSNGDKALTTFINGPLLEYSKNRRKADSATTSFLSPHLHFGEVSVRKVFHLVRIKQVAWANEGNEAGEESVNLFLKSIGLREYSRYISFNHPYSHERPLLGHLKFFPWAVDENYFKAWAQGRTGYPLVDAGMRELWATGWLHDRIRVVVSSFFVKVLQLPWRWGMKYFWDTLLDADLESDALGWQYITGTLPDSREFDRIDNPQFEGYKFDPNGEYVRRWLPELSRLPTDWIHHPWNAPESVLQAAGIELGSNYPLPIVGLDEAKARLHEALSQMWQLEAASRAAIENGSEE", "notes": "as for B2"}, "B4": {"name": "CRY1^(PHR W352A) in pGADT7 (AD) (domain or fragment, Arabidopsis thaliana, UniProt Q43125 1-508, looked up)", "chain": "MSGSVSGCGSGGCSIVWFRRDLRVEDNPALAAAVRAGPVIALFVWAPEEEGHYHPGRVSRWWLKNSLAQLDSSLRSLGTCLITKRSTDSVASLLDVVKSTGASQIFFNHLYDPLSLVRDHRAKDVLTAQGIAVRSFNADLLYEPWEVTDELGRPFSMFAAFWERCLSMPYDPESPLLPPKKIISGDVSKCVADPLVFEDDSEKGSNALLARAWSPGWSNGDKALTTFINGPLLEYSKNRRKADSATTSFLSPHLHFGEVSVRKVFHLVRIKQVAWANEGNEAGEESVNLFLKSIGLREYSRYISFNHPYSHERPLLGHLKFFPWAVDENYFKAWRQGRTGYPLVDAGMRELAATGWLHDRIRVVVSSFFVKVLQLPWRWGMKYFWDTLLDADLESDALGWQYITGTLPDSREFDRIDNPQFEGYKFDPNGEYVRRWLPELSRLPTDWIHHPWNAPESVLQAAGIELGSNYPLPIVGLDEAKARLHEALSQMWQLEAASRAAIENGSEE", "notes": "cryptochrome 1 (AtCRY1), Arabidopsis thaliana, PHR domain, residues 1-508; also called CRY1^W352A; source: yeast two-hybrid fusion (yeast Y187)"}, "B5": {"name": "CRY1^(PHR R435A) in pGADT7 (AD) (domain or fragment, Arabidopsis thaliana, UniProt Q43125 1-508, looked up)", "chain": "MSGSVSGCGSGGCSIVWFRRDLRVEDNPALAAAVRAGPVIALFVWAPEEEGHYHPGRVSRWWLKNSLAQLDSSLRSLGTCLITKRSTDSVASLLDVVKSTGASQIFFNHLYDPLSLVRDHRAKDVLTAQGIAVRSFNADLLYEPWEVTDELGRPFSMFAAFWERCLSMPYDPESPLLPPKKIISGDVSKCVADPLVFEDDSEKGSNALLARAWSPGWSNGDKALTTFINGPLLEYSKNRRKADSATTSFLSPHLHFGEVSVRKVFHLVRIKQVAWANEGNEAGEESVNLFLKSIGLREYSRYISFNHPYSHERPLLGHLKFFPWAVDENYFKAWRQGRTGYPLVDAGMRELWATGWLHDRIRVVVSSFFVKVLQLPWRWGMKYFWDTLLDADLESDALGWQYITGTLPDSREFDRIDNPQFEGYKFDPNGEYVRAWLPELSRLPTDWIHHPWNAPESVLQAAGIELGSNYPLPIVGLDEAKARLHEALSQMWQLEAASRAAIENGSEE", "notes": "cryptochrome 1 (AtCRY1), Arabidopsis thaliana, PHR domain, residues 1-508; also called CRY1^R435A; source: yeast two-hybrid fusion (yeast Y187)"}, "B6": {"name": "CRY1^(PHR R211A) in pGADT7 (AD) (domain or fragment, Arabidopsis thaliana, UniProt Q43125 1-508, looked up)", "chain": "MSGSVSGCGSGGCSIVWFRRDLRVEDNPALAAAVRAGPVIALFVWAPEEEGHYHPGRVSRWWLKNSLAQLDSSLRSLGTCLITKRSTDSVASLLDVVKSTGASQIFFNHLYDPLSLVRDHRAKDVLTAQGIAVRSFNADLLYEPWEVTDELGRPFSMFAAFWERCLSMPYDPESPLLPPKKIISGDVSKCVADPLVFEDDSEKGSNALLAAAWSPGWSNGDKALTTFINGPLLEYSKNRRKADSATTSFLSPHLHFGEVSVRKVFHLVRIKQVAWANEGNEAGEESVNLFLKSIGLREYSRYISFNHPYSHERPLLGHLKFFPWAVDENYFKAWRQGRTGYPLVDAGMRELWATGWLHDRIRVVVSSFFVKVLQLPWRWGMKYFWDTLLDADLESDALGWQYITGTLPDSREFDRIDNPQFEGYKFDPNGEYVRRWLPELSRLPTDWIHHPWNAPESVLQAAGIELGSNYPLPIVGLDEAKARLHEALSQMWQLEAASRAAIENGSEE", "notes": "cryptochrome 1 (AtCRY1), Arabidopsis thaliana, PHR domain, residues 1-508; also called CRY1^R211A; source: yeast two-hybrid fusion (yeast Y187)"}}, "assay_in_all_cases": "two-hybrid; CRY1 as prey in pGADT7 (AD), HsF as bait in pGBKT7 (BD), co-transformed into yeast Y187; liquid beta-galactosidase assay with CPRG, Miller units; not detected (ND) if OD578 <0.01 after 3 h of color development", "conditions_in_all_cases": "partners not purified", "key": {"[1]": {"biological_target": "T1, HsFA1d^WT in pGBKT7 (BD) (Arabidopsis thaliana, UniProt Q9LQM7 1-485)", "T1 construct": "source: yeast two-hybrid fusion (yeast Y187)"}, "[2]": {"biological_target": "T2, HsFA3^WT in pGBKT7 (BD) (Arabidopsis thaliana, UniProt Q8GYY1 1-412)", "T2 construct": "also called AtHsFA3; source: yeast two-hybrid fusion (yeast Y187)"}, "[3]": {"biological_target": "T3, HsFA6a^WT in pGBKT7 (BD) (Arabidopsis thaliana, UniProt Q1PDN3 1-282)", "T3 construct": "source: yeast two-hybrid fusion (yeast Y187)", "T3 sequence (looked up)": "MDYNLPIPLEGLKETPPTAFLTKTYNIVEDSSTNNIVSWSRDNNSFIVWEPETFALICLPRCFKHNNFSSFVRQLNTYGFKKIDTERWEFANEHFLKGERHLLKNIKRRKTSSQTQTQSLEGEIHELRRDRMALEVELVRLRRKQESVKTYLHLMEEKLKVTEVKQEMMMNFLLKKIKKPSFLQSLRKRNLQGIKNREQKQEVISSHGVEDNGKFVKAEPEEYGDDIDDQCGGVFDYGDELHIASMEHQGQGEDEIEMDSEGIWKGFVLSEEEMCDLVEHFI"}, "[4]": {"biological_target": "T4, HsFA6b^WT in pGBKT7 (BD) (Arabidopsis thaliana, UniProt Q9LUH8 1-406)", "T4 construct": "source: yeast two-hybrid fusion (yeast Y187)"}, "[5]": {"biological_target": "T5, HsFA7a in pGBKT7 (BD) (Arabidopsis thaliana, UniProt Q9SV12 1-272)", "T5 construct": "also called HsFA7^WT; source: yeast two-hybrid fusion (yeast Y187)"}, "[6]": {"biological_target": "T6, HsFC1^WT in pGBKT7 (BD) (Arabidopsis thaliana, UniProt Q9LV52 1-330)", "T6 construct": "source: yeast two-hybrid fusion (yeast Y187)"}, "[7]": {"biological_target": "T7, HsFA3^E173A in pGBKT7 (BD) (Arabidopsis thaliana, UniProt Q8GYY1 1-412, E173A)", "T7 construct": "source: yeast two-hybrid fusion (yeast Y187)", "T7 sequence (Q8GYY1 whole entry E173A, the tested form may be a part)": "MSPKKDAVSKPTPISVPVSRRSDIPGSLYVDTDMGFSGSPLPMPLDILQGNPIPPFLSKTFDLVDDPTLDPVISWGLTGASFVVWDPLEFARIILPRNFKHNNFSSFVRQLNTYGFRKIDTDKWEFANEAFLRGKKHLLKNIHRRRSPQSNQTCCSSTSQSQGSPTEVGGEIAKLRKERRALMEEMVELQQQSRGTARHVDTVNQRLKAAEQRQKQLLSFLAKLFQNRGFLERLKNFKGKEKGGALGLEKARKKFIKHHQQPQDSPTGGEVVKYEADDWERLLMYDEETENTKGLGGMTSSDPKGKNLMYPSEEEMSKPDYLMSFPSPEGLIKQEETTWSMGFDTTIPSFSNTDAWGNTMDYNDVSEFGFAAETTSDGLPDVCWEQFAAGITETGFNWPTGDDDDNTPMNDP"}, "[8]": {"biological_target": "T8, HsFA3^K174A in pGBKT7 (BD) (Arabidopsis thaliana, UniProt Q8GYY1 1-412, K174A)", "T8 construct": "source: yeast two-hybrid fusion (yeast Y187)", "T8 sequence (Q8GYY1 whole entry K174A, the tested form may be a part)": "as the sequence (Q8GYY1 whole entry E173A, the tested form may be a part) above, with A173E, K174A counted along it"}, "[9]": {"biological_target": "T9, HsFA3^K177A in pGBKT7 (BD) (Arabidopsis thaliana, UniProt Q8GYY1 1-412, K177A)", "T9 construct": "source: yeast two-hybrid fusion (yeast Y187)", "T9 sequence (Q8GYY1 whole entry K177A, the tested form may be a part)": "as the sequence (Q8GYY1 whole entry E173A, the tested form may be a part) above, with A173E, K177A counted along it"}, "[10]": {"biological_target": "T10, HsFA3^E178A in pGBKT7 (BD) (Arabidopsis thaliana, UniProt Q8GYY1 1-412, E178A)", "T10 construct": "source: yeast two-hybrid fusion (yeast Y187)", "T10 sequence (Q8GYY1 whole entry E178A, the tested form may be a part)": "as the sequence (Q8GYY1 whole entry E173A, the tested form may be a part) above, with A173E, E178A counted along it"}, "[11]": {"biological_target": "T11, HsFA3^E188A in pGBKT7 (BD) (Arabidopsis thaliana, UniProt Q8GYY1 1-412, E188A)", "T11 construct": "Not in the list of plasmids of the methods; source: yeast two-hybrid fusion (yeast Y187)", "T11 sequence (Q8GYY1 whole entry E188A, the tested form may be a part)": "as the sequence (Q8GYY1 whole entry E173A, the tested form may be a part) above, with A173E, E188A counted along it"}, "[12]": {"biological_target": "T12, HsFC1^R129E in pGBKT7 (BD) (Arabidopsis thaliana, UniProt Q9LV52 1-330, R129E)", "T12 construct": "source: yeast two-hybrid fusion (yeast Y187)", "T12 sequence (Q9LV52 whole entry R129E, the tested form may be a part)": "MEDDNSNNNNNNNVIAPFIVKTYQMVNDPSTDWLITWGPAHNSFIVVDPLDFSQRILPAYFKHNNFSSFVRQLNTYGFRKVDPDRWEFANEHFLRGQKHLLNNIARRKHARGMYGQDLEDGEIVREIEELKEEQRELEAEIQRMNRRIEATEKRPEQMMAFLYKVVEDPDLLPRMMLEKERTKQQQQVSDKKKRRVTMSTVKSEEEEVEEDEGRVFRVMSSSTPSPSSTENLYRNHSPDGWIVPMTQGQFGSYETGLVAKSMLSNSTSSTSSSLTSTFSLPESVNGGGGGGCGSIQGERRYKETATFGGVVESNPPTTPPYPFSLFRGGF"}}}
{"binder": "B1", "values": [{"measurement": "beta-galactosidase activity (Miller units)", "setting": "[1]", "result": 7, "unit": "Miller units"}, {"measurement": "beta-galactosidase activity (Miller units)", "setting": "[2]", "result": 250, "unit": "Miller units"}, {"measurement": "beta-galactosidase activity (Miller units)", "setting": "[3]", "result": "< 0.5", "unit": "Miller units"}, {"measurement": "beta-galactosidase activity (Miller units)", "setting": "[4]", "result": 45, "unit": "Miller units"}, {"measurement": "beta-galactosidase activity (Miller units)", "setting": "[5]", "result": 25, "unit": "Miller units"}, {"measurement": "beta-galactosidase activity (Miller units)", "setting": "[6]", "result": "< 0.5", "unit": "Miller units"}, {"measurement": "decrease of Y2H interaction relative to WT", "setting": "[7]", "result": 29, "unit": "%"}, {"measurement": "decrease of Y2H interaction relative to WT", "setting": "[8]", "result": 64, "unit": "%"}, {"measurement": "decrease of Y2H interaction relative to WT", "setting": "[9]", "result": 62, "unit": "%"}, {"measurement": "fold change of Miller units relative to WT", "setting": "[10]", "result": 2, "unit": "fold"}, {"measurement": "decrease of Y2H interaction relative to WT", "setting": "[11]", "result": 61, "unit": "%"}, {"measurement": "fold increase of Y2H interaction relative to WT", "setting": "[12]", "result": "~10", "unit": "fold"}]}
{"binder": "B2", "values": [{"measurement": "decrease of Y2H interaction relative to WT", "setting": "[2]", "result": 56, "unit": "%"}]}
{"binder": "B3", "values": [{"measurement": "decrease of Y2H interaction relative to WT", "setting": "[2]", "result": 41, "unit": "%"}]}
{"binder": "B4", "values": [{"measurement": "decrease of Y2H interaction relative to WT", "setting": "[2]", "result": 51, "unit": "%"}]}
{"binder": "B5", "values": [{"measurement": "decrease of Y2H interaction relative to WT", "setting": "[2]", "result": 12, "unit": "%"}]}
{"binder": "B6", "values": [{"measurement": "increase of Miller units relative to WT", "setting": "[2]", "result": 27, "unit": "%"}]}
